According to patent US20120264231A1, “ASSAY FOR ORAI CALCIUM CHANNEL REGULATORS” (IMMUNE DISEASE INSTITUTE, INC., priority 2009, published 2012):

Legend:
[1] = biological target: ORAI1 (E106Q) (Homo sapiens, UniProt Q96D31, E106Q); test: Cameleon D3 cpV intravesicular Ca^2+ assay, vesicles with ORAI1 (E106Q); format: biochemical; design: the ORAI functional fragment is ORAI1 (65-301), ORAI1 (65-87), or full length ORAI1; made in house; host or cells: S. cerevisiae NY17 (sec6-4), isolated secretory vesicles; conditions: vesicles containing ORAI1 (E106Q)
Sequence of ORAI1 (E106Q) (Q96D31 2-301 E106Q): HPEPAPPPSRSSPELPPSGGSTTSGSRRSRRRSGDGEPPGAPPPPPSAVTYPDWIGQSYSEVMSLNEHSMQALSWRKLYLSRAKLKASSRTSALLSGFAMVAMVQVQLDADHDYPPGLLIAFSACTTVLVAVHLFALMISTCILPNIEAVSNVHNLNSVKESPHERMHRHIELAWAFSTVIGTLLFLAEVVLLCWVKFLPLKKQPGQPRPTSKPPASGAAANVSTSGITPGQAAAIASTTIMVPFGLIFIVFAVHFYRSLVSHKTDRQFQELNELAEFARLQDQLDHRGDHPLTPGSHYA
Source text: (§1) Confirmation that Ca^2+ release from the vesicles was due to gating of the ORAI 1 channel was sought. […] It was concluded that the in vitro assay reflects STIM 1-dependent gating of ORAI1 and Ca^2+ flux through the ORAI1 channel pore.
(§2) The yeast expression vector pBEVY-GU60 allows for simultaneous expression of two transgenes by means of the bidirectional GAL1-10 promoter. The FRET-based calcium sensors D3 cpV and D4 cpV53 were fused at the N-terminus with the S. cerevisiae α-mating factor secretion signal (Bitter, G. A., et al., Proc Natl Acad Sci USA 81, 5330-5334 (1984)), which directs proteins into the secretory pathway, and introduced into pBEVY-GU in the following way. Vector pPIC9 (Invitrogen) served as template for PCR amplification of the α-mating factor secretion signal (5′ primer: […] (SEQ ID NO: 2); 3′ primer: […] (SEQ ID NO: 3)), introducing an EcoRI site at the 5′ end, and a sequence complementary to that encoding the N-terminus of the calcium sensor at the 3′ end. DNA encoding the N-terminal portion of the calcium sensor D3 cpV, comprising CFP, was amplified by PCR (5′ primer: […] (SEQ ID NO: 4); 3′ primer: […] (SEQ ID NO: 5)), introducing an SphI site followed by a stop codon and a NotI site at the 3′ end of the resulting DNA fragment. […]

[2] = biological target: T1, ORAI1 (R91W) (Homo sapiens, UniProt Q96D31, R91W); test: Cameleon D3 cpV intravesicular Ca^2+ assay, vesicles with ORAI1 (R91W); format: biochemical; conditions: vesicles containing ORAI1 (R91W)
T1 construct: the ORAI functional fragment is ORAI1 (65-301), ORAI1 (65-87), or full length ORAI1; made in house; host or cells: S. cerevisiae NY17 (sec6-4), isolated secretory vesicles
T1 sequence (Q96D31 2-301 R91W): as the sequence (Q96D31 2-301 E106Q) above, with R90W, Q105E counted along it
Source text: as §1, §2

## STIM1^CT: cytoplasmic region of STIM1, mouse residues 233-685, His-tagged recombinant protein expressed in E coli
[1]
  Ca^2+ release from vesicles: did not elicit Ca^2+ release
[2]
  Ca^2+ release from vesicles: did not elicit Ca^2+ release
